One variant from IntAct's records for PubMed 17855368 can be followed below.

The chains are these.
B1: DNA-binding protein inhibitor ID-1 (Homo sapiens), P41134 (parent)
chain: MKVASGSTATAAAGPSCALKAGKTASGAGEVVRCLSEQSVAISRCAGGAGARLPALLDEQQVNVLLYDMNGCYSRLKELVPTLPQNRKVSKVEILQHVIDYIRDLQLELNSESEVGTPGGRGLPVRAPLSTLNGEISALTAEAACVPADDRILCR

In the experiment the parent is B1. As to conditions: with cav1_human CAV1, Q03135.
Sequence of cav1_human CAV1, Q03135 (Q03135 whole entry): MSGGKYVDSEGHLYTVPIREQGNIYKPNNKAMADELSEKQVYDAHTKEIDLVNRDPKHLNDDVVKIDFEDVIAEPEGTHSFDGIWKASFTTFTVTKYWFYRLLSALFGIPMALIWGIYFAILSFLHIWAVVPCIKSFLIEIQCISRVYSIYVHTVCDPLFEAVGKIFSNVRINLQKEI
Consider Y101D, for which the “effect of a mutation on the interaction” value was “decreasing interaction”.
